Test: label from the status in PepcDB records
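Further: failed if final PepcDB status was selected cloned or expressed and not failed if soluble or beyond.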

Sequence | protein production
MPSVSVNKQGIVKVNSALNMRSGPGSNYGVIGTLRNNDEVEIIKEVDGWYEIKFNGKSGYVSSQYIKVLEHHHHHH | not failed
MPSYGNLGRLGGRHEYGVLVAMTSSAELDRVRWAHQLRSYRIASVLRIGVVGLMVAAMVVGTSRSEWPQQIVLIGVYAVAALWALLLAYSASRRFFALRRFRSMGRLEPFAFTAVDVLILTGFQLLSTDGIYPLLIMILLPVLVGLDVSTRRAAVVLACTLVGFAVAVLGDPVMLRAIGWPETIFRFALYAFLCATALMVVRIEERHTRSVAGLSALRAELLAQTMTASEVLQRRIAEAIHDGPLQDVLAARQELIELDAVTPGDERVGRALAGLQSASERLRQATFELHPAVLEQVGLGPAVKQLAASTAQRSGIKISTDIDYPIRSGIDPIVFGVVRELLSNVVRHSGATTASVRLGITDEKCVLDVADDGVGVTGDTMARRLGEGHIGLASHRARVDAAGGVLVFLATPRGTHVCVELPLKR | failed
MPTERPTTTAPVSLRERRRTAAAREILDAAEQHIGEHGPAALSLRAVARGLGMTVQALYHYFPNRDALVTALITKAYGELSDVLQAAADSVRADPATPRPVAVAEAYRGWGVARPEHFQLLYGTPLRYYAAPAEGPTTQAVRRMGAIFQRELFAGFTPAQLAAAEVPALSPSYREHLEQLPMHAQGDLPPAAASLFLSAWGHVHGLVVLEVFGHTAFLGDHQAEVFRTSVRMMLEDIHRRIPAA | not failed
MPTETFFNLPEEKRSRLIDVLLDEFAQNDYDSVSINRITERAGIAKGSFYQYFADKKDCYLYLIQLGIEQKTAFLRQTPPASTTDMFAYLRWLLDVGIQFQFHNPRLAQIAYKALYDDVPLPAETMQVIRHGSFAYFKQLVEQGIADGSLVPDLDADTAAFVLNVVFTELGNHLIERFAVNPAELLREGGIVLLQPAMRRVIEQVIDILERGMRRR | not failed
MPTICEFLGYKVYMFYQDHSPPHIHVIGKGFRAALSIPEGKLLAGTLPRRVQGVAKMWVRQEATALMQNWLRAEAGEVLQQVKPPEGWLEHHHHHH | failed
MPTIKDYYLPKRPTLLFSLHPEPTQAIINGTKILEYRRRFFARPFQAFVYTTGDNGGIQLFLRCDQGLQLVPEQLALVGALLQHDAPTTTAAYFEGAKAGLALPITAFTTLPNIPLAQLRRQFENFVTPRSYVFLDQPDRQAQLDWLLTQPCESLTILDWRKRYAALATLLQKLEHHHHHH | not failed
MPTLGFRFRAYTDEQTLRALKAQLKSACKIYNTLRWADIYFYQRDGKGLTRTELRQLALDLRKQDDEYKQLYSQVVQQVADRYYEAKKRFFEGLAHFPKEKKPHKHYSLVYPQYGWKILQVREIRKGSKKKLITLKLSNLGTFKVIVHRDFPLDKVKRVVVKLTRSERIYITFVVDHEFPKLPNTGKVVAIDVGVEKLIVTSDGEYFPNLRPYEKALWKVKHLHRELSRKKFLSHNWFKAKVKLARAYEYLKNLRTDLYMKLGKWFAEHYDVVVMEGIHVKQLIGKSLRSLRRRLSDVAFSELRDLIKYQLEKYGKKLILVNPAYTSKTCAKCGYVKEDLSLSDRVFVCPNCGWIADRDYNASLNILRGSGSERPLVWSSALYQYSGMAELLEHHHHHH | not failed
MPTPAYIKIVGQTQGNITAGAFTADSVGNVFQQGHEDQILVQEIKHEVTTPTDPQSGQPSGQRVHKPFIFTSSLNKATPLMYQALATGEMLPTVEVSWYRTSSEGKQEHFFTTTLEDATIVSINTVLPHALDKDNENYTQLVEVSLAYRKITWAHDVANTEGSDDWRAPAA | failed
MPTPAYMSINGETQGHITKDTYSADSVGNTWQEAHVDEFLVQELDHVLTVPRDPQSGQPTGQRVHRPLVVTKVQDRSSPLLFNALVSGEKLPECLIRFYRTSVQGKQEHYYSIKLIDALLVDIQTRMNHCQDAATADRVTEEVLKFTYRAIEVTHENCGTAGNDDWRAPREA | failed
MPTPPAASSLAAQMGESPAPLYARVKHMIALQIQNGTWPPHHRVPSESELVTQLGFSRMTINRALRELTVEGLLVRMQGVGTFVAEPKSQSALFEVHNIADEIAARGHRHTCKVMVLKEEAAGSERALALDMREGQRVFHSLIVHFENDIPVQIEDRFVNAQVAPDYLKQDFTLQTPYAYLSQVAPLTEGEHVVEAILAEADECKLLQIDAGEPCLLIRRRTWSGRQPVTAARLIHPGSRHRLEGRFTK | not failed
MPTTKQLKDTELPLNFFEHSSLETIELFIQHLTEAMILVNANGFIRSCNQRSAELLDCPQVSLKGQDWRNFLTEHHQARYDNLLSHDVQLGTNCGQPVQHPAQETTLICASGKAKDVELSISYIPGHEPMFVMVMHDLTHHKAENQKLRKLAATDSLTQLANRRYFDEMLQQHWEECTAKLRPISVVIIDVDYFKVFNDQFGHIQGDECLRKIAKVIAGIVPTEIGLAARYGGEEFALILPNHNAKMALTIAQKIQQGINNIRFTDQGLRDYVSVSASQGIACEVNGQFRTSLAMVCAADTALYRAKADGRDRINTSL | failed
MPTTTTDPNQKQAELSPDELQRYSRHLTLPEFGREGQEALKNASVLLVGAGGLGSPAATYLAAAGVGRIGLVDFDSVEASNLQRQILYGTSDVGRPKLDAASERLEDLNPHVDVETHEVRLTSDNALDIIDQYDVVADGTDNFPTRYLVNDACVMTGTPNVYASIFRFEGQVSVFATEDGPCYRCLYEEPPPPGLVPSCAEGGVLGILPGFIGTLQATEVIKVLTGVGEPLVGRLLMSDALNMDFRTVNVPTNPECPVCGDDPTVTELIDYEAFCGLPQSDESSPNGTADSDVSDTDDAVPETSVHDLKQRRDAGDAPFVLDVREPYEAEIASLDADQLIPVDDLEARLDELDAGPEEEIVVHCRSGARSAKATAFLREQGYDASNLEGGVLAWSEEIDDSVPQY | failed
MPTVKKLTKQVVDGLPTPATGQAFHWCSVTPGFAVRVTASGAKSYIVQGRVNSKTCRYTIGPCELLGTDEARKRALARLLEMHDGMNPQVERKRRQAQGVTLREVMEDYVENKRTKHGTLRDSSQADIKRCVTQHLADWADKPVASITREACVKRFRELSATAPTTANQVFRNLRALCNWARETNVAPDGSYPILPINPVVQAFKSVTWNKEVTREEFVPLAKVGAVWNMLAERSNAQIYTTADVTAAHLVMFLILTGARIGEGSALHWKDVRLDDEVPSFTFTQTKNHNEVTIPLSTQLHALLAARYSARRPDEEYVFPSRTGTREPHMQDARGTMQRVSKIAGLHLHNHDLRRTFLAIAIECGVEMWKAEILTNHLPQTVTLKHYTQTRDLRYLQADTQRVADWITKQAQVASGQNVVALRA | failed
MPTVLRWTRTMCKRPTCRVRQAWLVLPITGRWPSGGVSMKHACMLDSALPKPSQHSLRRQLNAIKREQFPWMSEVTKNAPQMAIIQLGRAFQNFFAGRAKYPKFRKKGMHDRFTLTNDQFDLEASRIRIPRLGWVRMRETLRFAGKIMLATVSRVAGRWFVSITVDVPDPSHLPQAENQGTVGVDLGVLVLATLSTGETVCGPRPHRALLGRVCRLSRSVLRKVKGSANRHKAKATLANLHARIAAIRLDALHTLTSDLTRRFHTIGIENLNVKGMLRNRHLARSIADIGFFEFRRQLEYKAMMRGGQVVVANRFFASSKRCLTCGHTLNELPLSVRQWACPACGARHDRDVNAAVNLKNMAVSSTVSACGEEGAGPRRKTAVGEAGSQLLEHHHHHH | failed
MPTYPPSLLQSLLQYIPERELAWDCGAGSGQLTHMLASYFDQVVGTDISQTQLSHAEYYDNISYQLQPAENTTFPDHCFDLITVAQAIHWFDFEAFYAEVRRTIKPSGILAVVGYGLIHVDDLEINAKVQHLYHQTLNGFWDAERHYVDELYQTIPFPFDEIEMPAFQIEAQWTLQQLLQYLNTWSAVQHYILEKNLDPVQQLLSKGLEHHHHHH | failed
MPVEITVKELLEAGVHFGHERKRWNPKFARYIYAERNGIHIIDLQKTMEELERTFRFIEDLAMRGGTILFVGTKKQAQDIVRMEAERAGMPYVNQRWLGGMLTNFKTISQRVHRLEELEALFASPEIEERPKKEQVRLKHELERLQKYLSGFRLLKRLPDAIFVVDPTKEAIAVREARKLFIPVIALADTDSDPDLVDYIIPGNDDAIRSIQLILSRAVDLIIQARGGVVEPSPSYALVQEAEATETPEGESEVEA | not failed

Reference: a protein production outcome set (Wang et al. 2014)
